Assay results as given in paper PMC5602324.
Where two headings read alike, the source gives them in different places. One block for each molecule: values may come before it.

Columns and labels:
[1] = molecular target: microtubule (tubulin) (Sus scrofa) (UniProt Q2XVP4); settings: cited from earlier work
[2] = molecular target: microtubule (tubulin) (Sus scrofa) (UniProt Q2XVP4); settings: cited from earlier work; remark: listed apart in the source
[3] = molecular target: microtubule (tubulin) (Sus scrofa) (UniProt Q2XVP4); settings: cited from earlier work; remark: listed apart in the source
[4] = molecular target: paclitaxel-stabilised microtubules (polymerised αβ-tubulin) (bovine) (UniProt Q6B856)
[5] = molecular target: paclitaxel-stabilised microtubules (polymerised αβ-tubulin) (bovine) (UniProt Q6B856); test: co-sedimentation; ADP state (1 mM ADP); 2.5 μM MKLP2-MD with 0–10 μM polymerised tubulin (paclitaxel-stabilised MTs), BRB80 plus 25 mM NaCl, 25°C, 100,000 × g; quadratic fit assuming 1:1 motor:tubulin dimer; apparent
[6] = molecular target: paclitaxel-stabilised microtubules (polymerised αβ-tubulin) (bovine) (UniProt Q6B856); test: co-sedimentation; AMPPNP state (1 mM nucleotide); 2.5 μM MKLP2-MD with 0–10 μM polymerised tubulin (paclitaxel-stabilised MTs), BRB80 plus 25 mM NaCl, 25°C, 100,000 × g; quadratic fit assuming 1:1 motor:tubulin dimer; apparent
[7] = molecular target: paclitaxel-stabilised microtubules (polymerised αβ-tubulin) (bovine) (UniProt Q6B856); test: co-sedimentation; ADP.AlFx state (1 mM nucleotide); 2.5 μM MKLP2-MD with 0–10 μM polymerised tubulin (paclitaxel-stabilised MTs), BRB80 plus 25 mM NaCl, 25°C, 100,000 × g; quadratic fit assuming 1:1 motor:tubulin dimer; apparent
[8] = molecular target: paclitaxel-stabilised microtubules (polymerised αβ-tubulin) (bovine) (UniProt Q6B856); test: co-sedimentation; no nucleotide (NN, apyrase-treated); 2.5 μM MKLP2-MD with 0–10 μM polymerised tubulin (paclitaxel-stabilised MTs), BRB80 plus 25 mM NaCl, 25°C, 100,000 × g; quadratic fit assuming 1:1 motor:tubulin dimer; apparent
[9] = molecular target: paclitaxel-stabilised microtubules (polymerised αβ-tubulin) (bovine) (UniProt Q6B856); remark: listed apart in the source

Molecule: Kin3 (Kif1a) motor domain (from UniProt P33173)
Kd [1]: 6.8 nM
Kd [2]: 5.9 nM
Kd [3]: 4.2 nM

MT-stimulated steady-state ATPase, K0.5,MT (Michaelis Menten fit of velocity against [tubulin]) [4]: 1.07 µM
Kd [5]: 363 nM
Kd [6]: 43 nM
Kd [7]: 355 nM
Kd [8]: 43 nM
B1: MKLP2 motor domain, construct 25–520 (domain or fragment)
chain: ESTAADLRSVVRKDLLSDCSVISASLEDKQALLEDTSEKVKVYLRIRPFLTSELDRQEDQGCVCIENTETLVLQAPKDSFALKSNERGVGQATHKFTFSQIFGPEVGQVAFFNLTMKEMVKDVLKGQNWLIYTYGVTNSGKTYTIQGTSKDAGILPQSLALIFNSLQGQLHPTPDLKPLLSNEVIWLDSKQIRQEEMKKLSLLIGGLQEEELSTSVKKRVHTESRIGASNSFDSGVAGLSSTSQFTSSSQLDETSQLWAQPDTVPVSVPADIRFSVWISFFEIYNELLYDLLEPPSHQHKRQTLRLCEDQNGNPYVKDLNWIHVRDVEEAWKLLKVGRKNQSFASTHMNQQSSRSHSIFSIRILHLQGEGDIVPKISELSLCDLAGSERCKHQKSGERLKEAGNINTSLHTLGRCIAALRQNQQNRSKQNLIPFRDSKLTRVFQGFFTGRGRSCMIVNVNPCASTYDETLHAAKFSALASQLVHAPPVHLGIPSLH

MT-stimulated steady-state ATPase, K0.5,MT (Michaelis Menten fit of velocity against [tubulin]) [9]: 0.93 µM
B2: MKLP2 motor domain, construct 1–520 (domain or fragment)
chain: MSHRILSPPAGLLSDEDVVDSPILESTAADLRSVVRKDLLSDCSVISASLEDKQALLEDTSEKVKVYLRIRPFLTSELDRQEDQGCVCIENTETLVLQAPKDSFALKSNERGVGQATHKFTFSQIFGPEVGQVAFFNLTMKEMVKDVLKGQNWLIYTYGVTNSGKTYTIQGTSKDAGILPQSLALIFNSLQGQLHPTPDLKPLLSNEVIWLDSKQIRQEEMKKLSLLIGGLQEEELSTSVKKRVHTESRIGASNSFDSGVAGLSSTSQFTSSSQLDETSQLWAQPDTVPVSVPADIRFSVWISFFEIYNELLYDLLEPPSHQHKRQTLRLCEDQNGNPYVKDLNWIHVRDVEEAWKLLKVGRKNQSFASTHMNQQSSRSHSIFSIRILHLQGEGDIVPKISELSLCDLAGSERCKHQKSGERLKEAGNINTSLHTLGRCIAALRQNQQNRSKQNLIPFRDSKLTRVFQGFFTGRGRSCMIVNVNPCASTYDETLHAAKFSALASQLVHAPPVHLGIPSLH
